B1: gpJ (bacteriophage lambda tip protein, in the purified tail) (natural protein)
chain: MGKGSSKGHTPREAKDNLKSTQLLSVIDAISEGPIEGPVDGLKSVLLNSTPVLDTEGNTNISGVTVVFRAGEQEQTPPEGFESSGSETVLGTEVKYDTPITRTITSANIDRLRFTFGVQALVETTSKGDRNPSEVRLLVQIQRNGGWVTEKDITIKGKTTSQYLASVVMGNLPPRPFNIRMRRMTPDSTTDQLQNKTLWSSYTEIIDVKQCYPNTALVGVQVDSEQFGSQQVSRNYHLRGRILQVPSNYNPQTRQYSGIWDGTFKPAYSNNMAWCLWDMLTHPRYGMGKRLGAADVDKWALYVIGQYCDQSVPDGFGGTEPRITCNAYLTTQRKAWDVLSDFCSAMRCMPVWNGQTLTFVQDRPSDKTWTYNRSNVVMPDDGAPFRYSFSALKDRHNAVEVNWIDPNNGWETATELVEDTQAIARYGRNVTKMDAFGCTSRGQAHRAGLWLIKTELLETQTVDFSVGAEGLRHVPGDVIEICDDDYAGISTGGRVLAVNSQTRTLTLDREITLPSSGTALISLVDGSGNPVSVEVQSVTDGVKVKVSRVPDGVAEYSVWELKLPTLRQRLFRCVSIRENDDGTYAITAVQHVPEKEAIVDNGAHFDGEQSGTVNGVTPPAVQHLTAEVTADSGEYQVLARWDTPKVVKGVSFLLRLTVTADDGSERLVSTARTTETTYRFTQLALGNYRLTVRAVNAWGQQGDPASVSFRIAAPAAPSRIELTPGYFQITATPHLAVYDPTVQFEFWFSEKQIADIRQVETSTRYLGTALYWIAASINIKPGHDYYFYIRSVNTVGKSAFVEAVGRASDDAEGYLDFFKGKITESHLGKELLEKVELTEDNASRLEEFSKEWKDASDKWNAMWAVKIEQTKDGKHYVAGIGLSMEDTEEGKLSQFLVAANRIAFIDPANGNETPMFVAQGNQIFMNDVFLKRLTAPTITSGGNPPAFSLTPDGKLTAKNADISGSVNANSGTLSNVTIAENCTINGTLRAEKIVGDIVKAASAAFPRQRESSVDWPSGTRTVTVTDDHPFDRQIVVLPLTFRGSKRTVSGRTTYSMCYLKVLMNGAVIYDGAANEAVQVFSRIVDMPAGRGNVILTFTLTSTRHSADIPPYTFASDVQVMVIKKQALGISVV
notes: Tip protein gpJ of bacteriophage lambda, 1132 residues: hub domains (HDII-ins1, HDII-ins2, HDII, HDIII, HDIV, OB), FNIII-1, FNIII-2, AHS, CSF, RBD; also called baseplate hub protein; central tail fiber protein; source: E. coli BL21 (DE3) pLysS, as part of the purified lambda tail
B2: gpL (bacteriophage lambda, in the purified tail) (natural protein)
chain: MQDIRQETLNECTRAEQSASVVLWEIDLTEVGGERYFFCNEQNEKGEPVTWQGRQYQPYPIQGSGFELNGKGTSTRPTLTVSNLYGMVTGMAEDMQSLVGGTVVRRKVYARFLDAVNFVNGNSYADPEQEVISRWRIEQCSELSAVSASFVLSTPTETDGAVFPGRIMLANTCTWTYRGDECGYSGPAVADEYDQPTSDITKDKCSKCLSGCKFRNNVGNFGGFLSINKLSQ
notes: gpL of bacteriophage lambda; consists of HDI and 4Fe-4S domains; Three units in the tail tip; also called baseplate hub protein; source: E. coli BL21 (DE3) pLysS, as part of the purified lambda tail

Tests used:
[1] = molecular target: B1; assay: cryo-EM structure; purified lambda tail mixed with ssLamB in MSP2N2 nanodisc, room temperature 50 min, nickel column and Superose 6 Increase; open state of the tail; conditions: both partners purified
[2] = molecular target: B2; assay: as above; conditions: both partners purified
[3] = molecular target: the molecule itself; assay: as above
[4] = molecular target: the molecule itself; assay: cryo-EM structure; gpJ713 alone, closed state; C3 symmetry; map at 2.76 A
E. coli LamB = molecular target: T1, E. coli LamB (E. coli, UniProt P02943 26-446); assay: BLI; His-tagged gpJ713 (2 ug/mL) captured on Ni-NTA sensors; five concentrations of Twin-Strep-tagged LamB in lysis buffer with 0.02% DDM; dissociation in the same buffer; conditions: both partners purified
T1 construct: LamB (maltoporin) of E. coli; own N-terminal signal peptide replaced by the OMPG signal peptide, Twin-Strep-tag after the signal peptide; also called ecLamB; E. coli's LamB; source: E. coli BL21 (DE3), isolated from the outer membrane in DDM, purified (Strep-Tactin XT, gel filtration); not shown: Twin-Strep-tag, N-terminal, kept

E. coli LamB A384S = molecular target: T2, E. coli LamB A384S (E. coli, UniProt P02943 26-446, A384S); assay: as above; conditions: both partners purified
T2 construct: LamB (maltoporin) of E. coli with the single-point mutation A384S; the text says A384S; also called ecLamB A384S; source: E. coli BL21 (DE3), isolated from the outer membrane in DDM, purified (Strep-Tactin XT, gel filtration); not shown: Twin-Strep-tag, N-terminal, kept

| Binder | binding result [1] | stoichiometry N [3] | further results |
| --- | --- | --- | --- |
| gpM (bacteriophage lambda tail protein, in the purified tail) (natural protein, Tail protein gpM of bacteriophage lambda; also called gpM ring; gpM hexamer; source: E. coli BL21 (DE3) pLysS, as part of the purified lambda tail) MKTFRWKVKPGMDVASVPSVRKVRFGDGYSQRAPAGLNANLKTYSVTLSVPREEATVLESFLEEHGGWKSFLWTPPYEWRQIKVTCAKWSSRVSMLRVEFSAEFEQVVN | binds | 6 | binding result [2]: binds |
| gpJ713 (C-terminal truncation of bacteriophage lambda gpJ, starting from residue 713) (domain or fragment, UniProt P03749 713-1132, looked up, holds FNIIIs, AHS, CSF and RBD; Trimer (C3 symmetry in the closed state map); also called central tail fiber; His-tagged gpJ713; source: E. coli BL21 (DE3), purified (nickel gravity column, gel filtration); not shown: 6xHis, N-terminal, kept) APAAPSRIELTPGYFQITATPHLAVYDPTVQFEFWFSEKQIADIRQVETSTRYLGTALYWIAASINIKPGHDYYFYIRSVNTVGKSAFVEAVGRASDDAEGYLDFFKGKITESHLGKELLEKVELTEDNASRLEEFSKEWKDASDKWNAMWAVKIEQTKDGKHYVAGIGLSMEDTEEGKLSQFLVAANRIAFIDPANGNETPMFVAQGNQIFMNDVFLKRLTAPTITSGGNPPAFSLTPDGKLTAKNADISGSVNANSGTLSNVTIAENCTINGTLRAEKIVGDIVKAASAAFPRQRESSVDWPSGTRTVTVTDDHPFDRQIVVLPLTFRGSKRTVSGRTTYSMCYLKVLMNGAVIYDGAANEAVQVFSRIVDMPAGRGNVILTFTLTSTRHSADIPPYTFASDVQVMVIKKQALGISVV |  |  | stoichiometry N [4]: 3; Kd (E. coli LamB): 1.76 nM; binding result (E. coli LamB A384S): binds |
| gpI (bacteriophage lambda, in the purified tail) (natural protein, gpI of bacteriophage lambda: unresolved N-terminal domain, helices H1 and H2, plug domain (159-175), beta-strands joined by loops; in the open structure only residues from 167 onward are seen; Three units in the tail tip; source: E. coli BL21 (DE3) pLysS, as part of the purified lambda tail) MAATHTLPLASPGMARICLYGDLQRFGRRIDLRVKTGAEAIRALATQLPAFRQKLSDGWYQVRIAGRDVSTSGLTAQLHETLPDGAVIHIVPRVAGAKSGGVFQIVLGAAAIAGSFFTAGATLAAWGAAIGAGGMTGILFSLGASMVLGGVAQMLAPKARTPRIQTTDNGKQNTYFSSLDNMVAQGNVLPVLYGEMRVGSRVVSQEISTADEGDGGQVVVIGR | binds |  |  |
| Shigella sonnei 3070 LamB (receptor, UniProt Q3YUU9 26-446, looked up, LamB (maltoporin) of Shigella sonnei 3070; own N-terminal signal peptide replaced by the OMPG signal peptide, Twin-Strep-tag after the signal peptide; differs from E. coli LamB in seven amino acids within the 381-390 region; Used in 0.02% DDM for BLI and for the gpJ713 complex, and in an MSP2N2 nanodisc (E. coli polar lipids) for the tail complex; also called ssLamB; LamB from Shigella sonnei …) VDFHGYARSGIGWTGSGGEQQCFQTTGAQSKYRLGNECETYAELKLGQEVWKEGDKSFYFDTNVAYSVAQQNDWEATDPAFREANVQGKNLIEWLPGSTIWAGKRFYQRHDVHMIDFYYWDISGPGAGLENIDVGFGKLSLAATRSSEAGGSSSFASNNIYDYTNETANDVFDVRLAQMEINPGGTLELGVDYGRANLRDNYRLVDGASKDGWLFTAEHTQSVLKGFNKFVVQYATDSMTSQGKGLSQGSGVAFDNEKFAYNINNNGHMLRILDHGAISMGDNWDMMYVGMYQDINWDNDNGTKWWTVGIRPMYKWTPIMSTVMEIGYDNVESQRTGDKNNQYKITLAQQWQAGDSIWSRPAIRVFATYAKWDEKWGYDYNGDSKVNPNYGKAVPADFNGGSFGRGDSDEWTFGAQMEIWW |  | 3 |  |
| B1 |  | 3 |  |
| B2 | binds |  |  |

Reference: paper PMC11101478, “Structural mechanism of bacteriophage lambda tail’s interaction with the bacterial receptor” (Nature Communications, 2024)
